Source: US20080014203A1 (published 2008)
Residue numbers refer to the chain shown, from its start. Each block holds one molecule with its values, some of them ahead of it.

Experiments:
[1] = target: IGF-I receptor (IGF-IR) on tumor cells (HT29, NCI H322M) or on 3T3 cells transfected with IGF-IR (human) (UniProt P08069); test: cell-based or functional assay
[2] = target: T1, IGF-I receptor (IGF-IR) on tumor cells (HT29, NCI H322M) or on 3T3 cells transfected with IGF-IR (human, UniProt P08069 31-736; P08069 741-1367, Natural receptor on cells: glycosylated, disulfide-linked alpha2-beta2 heterotetramer. One alpha and one beta chain are given.); test: displacement of I^125-labeled IGF-I from human tumor cells expressing IGF-IR (HT29, NCI H322M), scintillation counting
T1 construct: also called IGF-1R

[3] = target: T2, IGF-IR extracellular domain (human, UniProt P08069 31-935); test: SPR (BIACORE 3000); antibody captured by anti-human Fcγ antibody, IGF-IR extracellular domain in solution
T2 construct: extracellular domain; also called IGF-1R; insulin-like growth factor I receptor

Akt/PKB phosphorylation without IGF-I ligand (Western blot) [1]: > 5 nM
Molecule: αIR3 (antibody)

IC50 [2]: 0.3 nM
Kd [3]: 0.000695 nM
koff [3]: 1.03e-07 s⁻¹
kon [3]: 149000 M⁻¹ s⁻¹
B1: <IGF-1R>HUMAB Clone 18 (antibody 18) (antibody, V domains shown)
VH: QVELVESGGGVVQPGRSQRLSCAASGFTFSSYGMHWVRQAPGKGLEWVAIIWFDGSSTYYADSVRGRFTISRDNSKNTLYLQMNSLRAEDTAVYFCARELGRRYFDLWGRGTLVSVSS
VL: EIVLTQSPATLSLSPGERATLSCRASQSVSSYLAWYQQKPGQAPRLLIYDASKRATGIPARFSGSGSGTDFTLTISSLEPEDFAVYYCQQRSKWPPWTFGQGTKVESK

Kd [3]: 0.656 nM
koff [3]: 9.64e-05 s⁻¹
kon [3]: 147000 M⁻¹ s⁻¹
B2: <IGF-1R>HUMAB Clone 22 (antibody 22) (antibody, V domains shown)
VH: VQLVESGGGVVQPGRSLRLSCAASGFTFSSYGMHWVRQAPGKGLEWMAIIWFDGSSKYYGDSVKGRFTISRDNSKNTLYLQMNSLRADDTAVYYCARELGRRYFDLWGRGTLVTVSS
VL: B1 VL with K53N, S107I
